Read-outs that look alike come from different tables or passages of the source.
Experiments:
[1] = biological target: T1, N-terminally FLAG-tagged cynomolgus Ang2 (HEK293T conditioned medium) (cynomolgus, UniProt O15123 19-496 (human entry), limits assumed); assay: competition ELISA, FLAG-cAng2 on coated cTie2-Fc
T1 construct: may be a nucleotide entry; also called cAng2; FLAG-cAng2
T1 chain: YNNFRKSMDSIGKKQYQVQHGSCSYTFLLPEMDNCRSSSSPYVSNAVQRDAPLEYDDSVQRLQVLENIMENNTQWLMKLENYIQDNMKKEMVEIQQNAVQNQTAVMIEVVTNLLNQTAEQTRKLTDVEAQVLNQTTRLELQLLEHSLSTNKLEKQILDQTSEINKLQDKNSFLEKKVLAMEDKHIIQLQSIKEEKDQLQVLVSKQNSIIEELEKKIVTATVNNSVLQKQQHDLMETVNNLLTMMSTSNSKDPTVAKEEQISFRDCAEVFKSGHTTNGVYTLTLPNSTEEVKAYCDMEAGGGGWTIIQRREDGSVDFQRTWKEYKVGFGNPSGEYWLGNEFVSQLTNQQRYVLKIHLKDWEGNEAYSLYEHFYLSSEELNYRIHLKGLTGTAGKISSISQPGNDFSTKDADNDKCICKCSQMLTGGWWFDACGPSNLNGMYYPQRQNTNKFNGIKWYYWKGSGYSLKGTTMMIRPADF
Description: (§1) In brief, 2 μg/mL of recombinant mouse Tie2-Fc or cyno Tie2-Fc is coated overnight at 4° C. in a 96-well MaxiSorp plate (Nunc, Wiesbaden, Germany). Coated wells are blocked with a 1% casein solution.

[2] = biological target: T2, N-terminally FLAG-tagged mouse Ang2 (HEK293T conditioned medium) (mouse, UniProt O35608 19-496); assay: competition ELISA, FLAG-mAng2 on coated mTie2-Fc
T2 construct: may be a nucleotide entry; also called mAng2; FLAG-mAng2
T2 sequence: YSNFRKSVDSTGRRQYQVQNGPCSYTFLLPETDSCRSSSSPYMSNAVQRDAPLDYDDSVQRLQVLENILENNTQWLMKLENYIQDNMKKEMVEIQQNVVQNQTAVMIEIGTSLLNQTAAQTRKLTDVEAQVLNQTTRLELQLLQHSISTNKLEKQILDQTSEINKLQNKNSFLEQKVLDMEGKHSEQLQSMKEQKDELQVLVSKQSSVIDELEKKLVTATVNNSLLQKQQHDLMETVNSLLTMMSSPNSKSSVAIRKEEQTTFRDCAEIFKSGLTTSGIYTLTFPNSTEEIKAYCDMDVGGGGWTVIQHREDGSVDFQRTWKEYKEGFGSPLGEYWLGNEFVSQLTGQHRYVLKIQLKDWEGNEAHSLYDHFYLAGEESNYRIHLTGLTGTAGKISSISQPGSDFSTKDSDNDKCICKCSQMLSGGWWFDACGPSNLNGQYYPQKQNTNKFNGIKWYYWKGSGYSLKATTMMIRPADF
Description: as §1

[3] = biological target: T3, recombinant mouse Ang2-FLD (mouse, UniProt O35608 275-496, limits assumed); assay: SPR (Biacore T100), binder on CM5 chip, Ang2-FLD as analyte
T3 construct: domain: FLD
T3 sequence (looked up): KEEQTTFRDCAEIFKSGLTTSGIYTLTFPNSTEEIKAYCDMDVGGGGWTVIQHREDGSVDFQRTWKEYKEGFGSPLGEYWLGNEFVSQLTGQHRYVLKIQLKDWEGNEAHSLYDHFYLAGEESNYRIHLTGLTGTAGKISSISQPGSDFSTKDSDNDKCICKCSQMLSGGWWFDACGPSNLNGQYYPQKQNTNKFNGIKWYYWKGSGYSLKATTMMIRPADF
Summary of the method: (§2)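 Binders were immobilized by amine coupling onto a CM5 sensor chip, and Ang2-FLD from each species was passed over as analyte at 45 μL/min, with 2 min association and 20 min dissociation. Surfaces were regenerated between injections using a 10 sec 25 mM NaOH pulse and 60 sec stabilization. Rate constants came from a 1:1 Langmuir fit, and KD was derived from them.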

[4] = biological target: T4, recombinant cynomolgus Ang2-FLD (cynomolgus); assay: as above
T4 construct: domain: FLD; also called cyno Ang2-FLD
Summary of the method: as §2

[5] = biological target: T5, recombinant human Ang2-FLD (human, UniProt O15123 275-496, limits assumed); assay: as above
T5 construct: domain: FLD; not used
T5 sequence (looked up): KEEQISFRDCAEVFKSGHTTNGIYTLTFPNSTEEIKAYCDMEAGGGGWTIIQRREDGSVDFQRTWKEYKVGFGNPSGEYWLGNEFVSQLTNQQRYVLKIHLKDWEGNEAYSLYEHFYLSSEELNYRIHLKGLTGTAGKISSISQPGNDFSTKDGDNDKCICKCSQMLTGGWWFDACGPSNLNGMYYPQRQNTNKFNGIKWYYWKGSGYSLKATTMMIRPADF
Summary of the method: as §2

[6] = biological target: T6, FLAG-tagged recombinant human Ang1 (Alexis Biochemicals) (human, UniProt Q15389 20-498, limits assumed); assay: ratio of IC50 in hAng1/hTie2 ELISA to IC50 in hAng2/hTie2 ELISA
T6 construct: Bought reagent; also called hAng1; FLAG-hAng1
T6 sequence (looked up): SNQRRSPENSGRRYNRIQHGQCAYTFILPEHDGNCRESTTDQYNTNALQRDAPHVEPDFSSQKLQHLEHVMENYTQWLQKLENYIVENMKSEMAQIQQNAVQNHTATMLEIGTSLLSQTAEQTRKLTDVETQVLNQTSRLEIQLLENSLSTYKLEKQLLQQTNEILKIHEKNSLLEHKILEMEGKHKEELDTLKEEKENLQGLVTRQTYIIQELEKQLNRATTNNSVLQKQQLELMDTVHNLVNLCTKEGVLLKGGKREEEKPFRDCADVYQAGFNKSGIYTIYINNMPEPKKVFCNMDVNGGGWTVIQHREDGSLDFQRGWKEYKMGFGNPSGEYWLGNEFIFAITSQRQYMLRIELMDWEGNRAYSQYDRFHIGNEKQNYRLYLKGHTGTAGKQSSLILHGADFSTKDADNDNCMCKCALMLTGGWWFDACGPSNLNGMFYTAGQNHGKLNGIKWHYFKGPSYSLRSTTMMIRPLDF
Description: In brief, 2 μg/mL of Tie2/Fc chimera (R&D Systems, Minneapolis, Minn., USA) is coated in a 96-well MaxiSorp plate (Nunc, Wiesbaden, Germany).
(§3) In brief, 2 μg/mL of recombinant human Tie2-Fc (R&D Systems, Minneapolis, Minn., USA) is coated overnight at 4° C. in a 96-well MaxiSorp plate (Nunc, Wiesbaden, Germany). Coated wells are blocked with a 1% casein solution.

[7] = biological target: T2, N-terminally FLAG-tagged mouse Ang2 …; assay: competition ELISA, FLAG-mAng2 on coated mTie2-Fc; remark: listed apart in the source
Description: as §1

[8] = biological target: T6, FLAG-tagged recombinant human Ang1 …; assay: competition ELISA, FLAG-hAng1 (0.02 nM) on coated hTie2-Fc
Description: as §3

IC50 [1]: 0.0237 µM | IC50 [2]: 0.0052 µM | Kd [3]: 0.011 µM | koff [3]: 0.026 s⁻¹ | kon [3]: 2.5e+06 M⁻¹ s⁻¹ | Kd [4]: 0.0034 µM | koff [4]: 0.023 s⁻¹ | kon [4]: 6.9e+06 M⁻¹ s⁻¹ | Kd [5]: 0.0036 µM | koff [5]: 0.021 s⁻¹ | kon [5]: 5.7e+06 M⁻¹ s⁻¹ | hAng1/hAng2 ratio [6]: 230 | IC50 [7]: 0.0214 µM | IC50 [8]: 2 µM
B1: VHH 10H02 (VHH)
VHH: EVQLVESGGGSVQAGGSLRLSCAASGFTFDDYAIGWFRQAPGKEREGVSCISSSDGSTNYADSVKGRFTISSDTAKNTVYLQMNSLKPEDTAVYYCTAVPATRRTPQMVDANMCWLAEYEYDYWGQGTQVTVSS
notes: also called 010H02; not shown: C-terminal c-myc tag and His6 tag

From patent US20230203146A1 (Boehringer Ingelheim, published 2023)
